Laboratory results: patent US20110135573A1, “METALLOPROTEINASE 9 AND METALLOPROTEINASE 2 BINDING PROTEINS” (DYAX CORP., priority 2009, published 2011)

Experiments:
[1] = biological target: T1, Human MMP-9 catalytic domain (Homo sapiens, UniProt P14780); assay: Biacore 3000 binding to antibody-coated CM5 chip; settings: 25° C.
T1 construct: Human MMP-9 catalytic domain (BIOMOL, SE-244); purchased BIOMOL SE-244
Method: (§1) Experiments were performed at 25° C. with the help of a Biacore 3000 instrument. The MMP-9 binding protein (M0166F10) and the M0237-D02 antibody were coated to a CM5 chip either via standard amine coupling or using an anti-Fc antibody surface. Then either the active, human MMP-9 catalytic domain (BIOMOL, SE-244), the human pro-MMP-9 (R&D, 911-MP), the human TIMP-1 (R&D, 970-TM) or a h-MMP-9/h-TIMP-1 complex were flowed over the antibody surfaces, and binding was recorded.

[2] = biological target: T2, human TIMP-1 (Homo sapiens, UniProt P01033); assay: Biacore 3000 binding to antibody-coated CM5 chip; settings: Direct capture; 25° C.
T2 construct: purchased R&D Systems 970-TM
Method: as §1

[3] = biological target: T3, human pro-MMP-9 (Homo sapiens, UniProt P14780); assay: Biacore 3000 binding to antibody-coated CM5 chip; settings: Direct capture, 25° C.
T3 construct: the human pro-MMP-9 (R&D, 911-MP); purchased R&D Systems 911-MP
Method: as §1

[4] = biological target: h-MMP-9/h-TIMP-1 complex (Homo sapiens, UniProt P14780); assay: Biacore 3000 binding to antibody-coated CM5 chip; settings: 25° C.
Method: The non competitive inhibition model implies that the ternary complex enzyme-substrate-inhibitor can form. It is however possible that this complex cannot form with bigger substrates, in which case the antibody would behave as a competitive inhibitor. In order to address this issue, the ability of M0237-D02 antibody to bind to the h-MMP-9 when the enzyme is complexed to its natural inhibitor h-TIMP-1 was determined. The reasoning is that if the antibody cannot bind to the h-MMP-9/h-TIMP-1 complex, it would probably behave as a competitive inhibitor of this enzyme in the presence of bigger substrates.
as §1

[5] = biological target: T1, Human MMP-9 catalytic domain; assay: Inhibition progress curves and kinetic analysis (kobs, kon, koff); type: biochemical; settings: 25° C.; for kobs: substrate 9 μM
Method: The kinetics of the interaction between M0237-D02 and the human MMP-9 were determined. The rates were determined using the following equation: […]
The second order rate constant for the association of the enzyme E and the inhibitor I (kon) and the first order rate constant for the dissociation of the complex EI (koff) can be calculated from inhibition progress curves obtained at different inhibitor concentrations.
Materials: • Substrate: Mca-KPLGL-Dap(Dnp)-AR-NH2 (M-2350) from BACHEM (521575). A 10 mM stock solution was prepared in DMSO. • Human MMP-9 catalytic domain (BIOMOL, SE-244). • M0237-D02 hIgG1: 2517-068. • All measurements were performed at 25° C. in TCNB: 50 mM Tris/HCl, 10 mM CaCl2, 150 mM NaC10.05% Brij 35, pH 7.5. • 96-well black plates from Perkin Elmer (6005270) • Spectramax M2e to measure fluorescence emission of the substrate upon hydrolysis (λexc=328 nm and λem=393 nm)
The enzyme (at a final concentration ranging from 1.5 to 12.3 nM), the substrate (9 μM final) and the M0237-D02 antibody were mixed, and the fluorescence was immediately recorded in order to follow the hydrolysis of the substrate. The observed inhibition rate (kobs) was obtained by analyzing the progress curves with a single exponential. The value for kon and koff were calculated from the plot of the kobs vs. the antibody concentration using the following equation: […]

[6] = system: Colo205 tumor sections; assay: Film in situ zymography (FIZ) on frozen tumor sections; type: cell-based, human; settings: 500 nM; 37° C. overnight
Method: (§2) PBS-control treated tumors were screened with M0237-D02 for gelatinase expression using the FIZ approach. The tumors tested were Colo205 and MCF-7. Briefly, frozen slides of tumpor sections were dried at room temperature and 200 μl of in situ Zymo buffer (TCNB)+20 μg/ml of gelatin quenched substrate from molecular probes was added. The slides were incubate at 37° C. overnight in the presence of M0237-D02 at 500 nM or GM6001 used as a positive control at 100 μM. The substrate was washed in MilliQ (3 times) and the mounted slides were treated with anti-Fade+Dapi mounting medium.

[7] = system: MCF-7 tumor sections; assay: as above; type: cell-based, human; settings: 500 nM; 37° C. overnight
Method: as §2

[8] = from plot of kobs vs. antibody concentration

h-MMP-9/h-TIMP-1 complex, sequence (P14780 107-444 limits assumed): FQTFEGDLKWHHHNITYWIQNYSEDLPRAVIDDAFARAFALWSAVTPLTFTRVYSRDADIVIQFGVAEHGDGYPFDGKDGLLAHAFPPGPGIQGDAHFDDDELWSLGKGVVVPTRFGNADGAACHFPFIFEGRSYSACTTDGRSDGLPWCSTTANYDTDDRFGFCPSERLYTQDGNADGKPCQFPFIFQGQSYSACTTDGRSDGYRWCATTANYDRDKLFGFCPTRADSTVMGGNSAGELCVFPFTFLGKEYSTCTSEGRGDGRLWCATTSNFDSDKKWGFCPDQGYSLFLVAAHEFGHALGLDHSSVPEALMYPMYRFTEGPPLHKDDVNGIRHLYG
h-MMP-9/h-TIMP-1 complex, sequence (P01033 24-207 partner): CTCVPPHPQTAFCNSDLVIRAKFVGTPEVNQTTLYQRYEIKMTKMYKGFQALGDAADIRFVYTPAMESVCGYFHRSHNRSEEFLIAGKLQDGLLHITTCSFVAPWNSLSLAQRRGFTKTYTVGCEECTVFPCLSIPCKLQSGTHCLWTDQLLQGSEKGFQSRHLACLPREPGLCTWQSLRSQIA
T1 sequence (P14780 107-444 limits assumed): as the sequence (P14780 107-444 limits assumed) above
T3 sequence (P14780 20-707 limits assumed): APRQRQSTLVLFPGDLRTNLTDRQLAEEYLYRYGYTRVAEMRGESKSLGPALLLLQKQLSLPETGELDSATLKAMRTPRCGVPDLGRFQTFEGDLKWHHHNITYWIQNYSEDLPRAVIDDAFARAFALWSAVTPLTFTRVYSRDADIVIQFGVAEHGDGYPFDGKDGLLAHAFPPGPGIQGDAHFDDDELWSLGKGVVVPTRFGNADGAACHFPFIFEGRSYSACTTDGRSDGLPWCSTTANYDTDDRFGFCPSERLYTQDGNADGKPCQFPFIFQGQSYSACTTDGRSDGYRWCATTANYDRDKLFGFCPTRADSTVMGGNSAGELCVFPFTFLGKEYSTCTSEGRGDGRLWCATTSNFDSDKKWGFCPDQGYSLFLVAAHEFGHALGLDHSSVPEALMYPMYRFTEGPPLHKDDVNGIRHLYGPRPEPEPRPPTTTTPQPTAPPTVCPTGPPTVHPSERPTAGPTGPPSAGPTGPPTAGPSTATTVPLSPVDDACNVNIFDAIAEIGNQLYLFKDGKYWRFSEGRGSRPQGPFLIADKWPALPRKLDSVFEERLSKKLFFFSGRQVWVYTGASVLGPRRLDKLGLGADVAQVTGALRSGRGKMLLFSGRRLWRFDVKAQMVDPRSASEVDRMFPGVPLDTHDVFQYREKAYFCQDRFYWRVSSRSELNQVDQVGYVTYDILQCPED
T2 sequence (P01033 24-207): as the sequence (P01033 24-207 partner) above

B1: M0237-D02: MMP-9/-2 dual reactive antibody inhibitor (parental); sFab and hIgG1 (antibody, V domains shown)
VH: EVQLLESGGGLVQPGGSLRLSCAASGFTFSQYPMWWVRQAPGKGLEWVSYIVPSGGRTYYADSVKGRFTISRDNSKNTLYLQMNSLRAEDTAVYYCAKDRAYGDYVGWNGFDYWGQGTLVTVSS
VL: DIQMTQSPATLSLSPGERATLSCRASQSISSFLAWYQQKPGQAPRLLIYDASYRATGIPARFSGSGSGTDFTLTISSLEPEDYAVYYCQQRGNWPITFGQGTRLEIK
binding of Cat-huMMP-9 ([1]; Direct capture (amine coupling)): No
binding of Cat-huMMP-9 ([1]; Fc capture (anti-Fc antibody surface)): could be observed
binding of Cat-huMMP-9 ([1]; Fc capture (anti-Fc antibody surface), listed as 539A-M0237D02): Yes
binding of huTIMP-1 [2]: No
binding of Pro-huMMP-9 ([3]; listed as 539A-M0237D02): No
binding of Pro-huMMP-9 ([3]; listed as M237-D02): observed neither
binding of huTIMP-1/cat-huMMP-9 ([4]; Direct capture): No
binding of huTIMP-1/cat-huMMP-9 ([4]; Fc capture): no binding was observed
binding of huTIMP-1/cat-huMMP-9 ([4]; Fc capture, listed as 539A-M0237D02): No
kobs ([5]; M0237-D02 concentration 14.4 nM): 0.0013 s⁻¹
kobs ([5]; M0237-D02 concentration 19.2 nM): 0.0019 s⁻¹
kobs ([5]; M0237-D02 concentration 28.8 nM): 0.0024 s⁻¹
kobs ([5]; M0237-D02 concentration 115.2 nM): 0.0086 s⁻¹
koff [5, 8]: ~4 10^−4 s^−1
kon [5, 8]: ~7 10^4 M^−1 s^−1
inhibition of gelatinolytic activity [6]: complete inhibition
inhibition of gelatinolytic activity [7]: complete inhibition
